Experiment [1] deals with human CD3 on Jurkat cells (human) (UniProt P07766). The experiment in a line: competitive binding on Jurkat cells, competitor at 1 nM, tracer 125I-UCHT1.
Experiment [2] shares this target. Briefly: competitive binding on Jurkat cells, competitor at 100 nM, tracer 125I-UCHT1.
Experiment [3] concerns the target T1, monkey CD3 on HSC-F monkey T cells (cynomolgus monkey, UniProt Q95LI5 22-198).
T1 construct: whole, on cells; also called monkey CD3ε
The experiment in a line: competition with FITC-labeled FN18 tracer (5x10^-9 M) for binding to HSC-F monkey T cells, flow cytometry, 4 C.

Experiment [4] addresses T1, monkey CD3 on HSC-F monkey T cells. Briefly: competition with FN18-FITC on HSC-F cells, flow cytometry, replicate assays.

T1 sequence (Q95LI5 22-198): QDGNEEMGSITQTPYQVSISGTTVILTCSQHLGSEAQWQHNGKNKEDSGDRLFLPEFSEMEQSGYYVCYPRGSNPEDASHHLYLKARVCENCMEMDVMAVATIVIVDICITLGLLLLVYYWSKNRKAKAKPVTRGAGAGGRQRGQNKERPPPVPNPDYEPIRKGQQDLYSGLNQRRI

Consider “scUCHT1 (from UniProt P01871 106-453) (Fc fusion)”, for which the % of 125I-UCHT1 bound to Jurkat cells in experiment [1] was found to be 80%; in experiment [2], 0%.
For UCHT1 (antibody), in that order: 80% and 0%.

B1: scFv(C207) (scFv)
scFv: DFVMSQSPSSLAVSVGERVTMSCKSSQSLLYFSNRKNYLAWYQQKPGQSPKLLINWASTRESGVPDRFTGSGSRTDFTLTISSVKAEDLAVYFCQQFYSYPPTFGGGTKLEIKGGGGSGGGGSGGGGSQVQLQQSEAELARPGASVKMSCKASGYTFTDYTIHWLRQKPGQGLDWIGYFNPSSGSTEYNRKFKDRTILTADRSSTTVYMQLSSLTSEDSAVYYCARKGEKLLGNRYWYFDVWGAGTSVTVSS
B1: the “IC50 (read off the curve)” value in experiment [3] was ~2 nM.

B2: biscFv(C207) (other)
chain: DFVMSQSPSSLAVSVGERVTMSCKSSQSLLYFSNRKNYLAWYQQKPGQSPKLLINWASTRESGVPDRFTGSGSRTDFTLTISSVKAEDLAVYFCQQFYSYPPTFGGGTKLEIKGGGGSGGGGSGGGGSQVQLQQSEAELARPGASVKMSCKASGYTFTDYTIHWLRQKPGQGLDWIGYFNPSSGSTEYNRKFKDRTILTADRSSTTVYMQLSSLTSEDSAVYYCARKGEKLLGNRYWYFDVWGAGTSVTVSSGGGGSGGGGSGGGGSDFVMSQSPSSLAVSVGERVTMSCKSSQSLLYFSNRKNYLAWYQQKPGQSPKLLINWASTRESGVPDRFTGSGSRTDFTLTISSVKAEDLAVYFCQQFYSYPPTFGGGTKLEIKGGGGSGGGGSGGGGSQVQLQQSEAELARPGASVKMSCKASGYTFTDYTIHWLRQKPGQGLDWIGYFNPSSGSTEYNRKFKDRTILTADRSSTTVYMQLSSLTSEDSAVYYCARKGEKLLGNRYWYFDVWGAGTSVTVSS
For the molecule B2, in experiment [4], the “ratio of concentrations at equal displacement, biscFv(C207)/scFv(C207)” value amounted to 2.5 fold.

B3: Db(C207) (other)
chain: DFVMSQSPSSLAVSVGERVTMSCKSSQSLLYFSNRKNYLAWYQQKPGQSPKLLINWASTRESGVPDRFTGSGSRTDFTLTISSVKAEDLAVYFCQQFYSYPPTFGGGTKLEIKGGGGSQVQLQQSEAELARPGASVKMSCKASGYTFTDYTIHWLRQKPGQGLDWIGYFNPSSGSTEYNRKFKDRTILTADRSSTTVYMQLSSLTSEDSAVYYCARKGEKLLGNRYWYFDVWGAGTSVTVSS
notes: also called diabody of C207; diabody (C207)
On to B3, for which the “ratio of concentrations at equal displacement, Db(C207)/scFv(C207)” value in experiment [4] amounted to 7 fold.

The values above are taken from patent US20110189209A1 (GOVERNMENT OF THE UNITED STATES OF AMERICA AS REPRESENTED …, published 2011).
